# Results: the supplement of paper PMC6755084
# System: F1*sub RNA substrate (template-directed ligation)
# Assay: fraction ligated after 30 min (ligated reads / total reads); higher = more ligase activity; sequences stand for … in GAGACCGCAACTGAAAAGTTGT…AGTTCTGCACGTAGAAGCAAAAGGC
# Details: 42 °C
# Method: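 Chip-synthesised pool of F1* ligase ribozyme variants (all single and double substitutions, single, double and triple deletions in the catalytic core and GAA bulge, plus designed variants) was transcribed with T7 and reacted as a pool with excess substrate F1*sub for 30 min at 42 C in 50 mM EPPS pH 8.5, 25 mM MgCl2. Ligated and unligated bands were separated by PAGE, barcoded by RT and deep sequenced; fraction ligated = ligated reads / total reads per variant, relative activity = FL / FL of wild type (0.826). Sequences are the DNA template of the ribozyme.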
row,Sequence,fraction ligated
1,ATCACTTTCGAAGACACTTTGGATGGGTTGA [3d126],0.698
2,ATCACTTTCGTAAACACTTTGGATGGGTTGA [3d128],0.779
3,ATCACTTTCGTAAGAACTTTGGATGGGTTGA [3d130],0.849
4,ATCACTTTCGTAAGACACTTGGATGGGTTGA [3d133],0.748
5,ATCACTTTCGTAAGACACTTTGATGGGTTGA [3d134],0.401
6,ATCACTTTCGTAAGACACTTTGGAGGGTTGA [3d136],0.0337
7,ATCACTTTCGTAAGACACTTTGGATGGGTTA [3d138],0.137
8,ATCACTTTCGTAAGACACTTTGGATGGGTTG [3d139],0.777
9,ATCACTTTCGTAAGACACTTTGGATGGGTTGA [2d7],0.772
10,ATCACTTTCGTAAGACACTTTGGATGGTTGA [3d137],0.191
11,ATCACTTTCGTAAGACACTTTGGTGGGTTGA [3d135],0.00882
12,ATCACTTTCGTAAGACATTTGGATGGGTTGA [3d132],0.781
13,ATCACTTTCGTAAGACCTTTGGATGGGTTGA [3d131],0.752
14,ATCACTTTCGTAAGCACTTTGGATGGGTTGA [3d129],0.766
15,ATCACTTTCGTAGACACTTTGGATGGGTTGA [3d127],0.781
16,ATCACTTTCTAAGACACTTTGGATGGGTTGA [3d125],0.753
17,ATCACTTTGTAAGACACTTTGGATGGGTTGA [3d124],0.787
18,ATCATGTCGTAAGACACTTTGGATGGGTTGA [3d86],0.722
19,ATCATTGCGTAAGACACTTTGGATGGGTTGA [3d88],0.755
20,ATCATTGTCGAAGACACTTTGGATGGGTTGA [3d91],0.728
21,ATCATTGTCGTAAACACTTTGGATGGGTTGA [3d93],0.77
22,ATCATTGTCGTAAGAACTTTGGATGGGTTGA [3d95],0.802

row,Sequence,fraction ligated
1,ATCATTGTCGTAAGACACTTGGATGGGTTGA [3d98],0.726
2,ATCATTGTCGTAAGACACTTTGATGGGTTGA [3d99],0.664
3,ATCATTGTCGTAAGACACTTTGGAGGGTTGA [3d101],0.12
4,ATCATTGTCGTAAGACACTTTGGATGGGTTA [3d103],0.093
5,ATCATTGTCGTAAGACACTTTGGATGGGTTG [3d104],0.703
6,ATCATTGTCGTAAGACACTTTGGATGGGTTGA [2d5],0.759
7,ATCATTGTCGTAAGACACTTTGGATGGTTGA [3d102],0.482
8,ATCATTGTCGTAAGACACTTTGGTGGGTTGA [3d100],0.109
9,ATCATTGTCGTAAGACATTTGGATGGGTTGA [3d97],0.729
10,ATCATTGTCGTAAGACCTTTGGATGGGTTGA [3d96],0.717
11,ATCATTGTCGTAAGCACTTTGGATGGGTTGA [3d94],0.727
12,ATCATTGTCGTAGACACTTTGGATGGGTTGA [3d92],0.761
13,ATCATTGTCTAAGACACTTTGGATGGGTTGA [3d90],0.663
14,ATCATTGTGTAAGACACTTTGGATGGGTTGA [3d89],0.79
15,ATCATTTCGTAAGACACTTTGGATGGGTTGA [3d87],0.654
16,ATCCTGTCGTAAGACACTTTGGATGGGTTGA [3d67],0.683
17,ATCCTTGCGTAAGACACTTTGGATGGGTTGA [3d69],0.768
18,ATCCTTGTCGAAGACACTTTGGATGGGTTGA [3d72],0.773
19,ATCCTTGTCGTAAACACTTTGGATGGGTTGA [3d74],0.789
20,ATCCTTGTCGTAAGAACTTTGGATGGGTTGA [3d76],0.719
21,ATCCTTGTCGTAAGACACTTGGATGGGTTGA [3d79],0.733
22,ATCCTTGTCGTAAGACACTTTGATGGGTTGA [3d80],0.71

row,Sequence,fraction ligated
1,ATCCTTGTCGTAAGACACTTTGGAGGGTTGA [3d82],0.1
2,ATCCTTGTCGTAAGACACTTTGGATGGGTTA [3d84],0.218
3,ATCCTTGTCGTAAGACACTTTGGATGGGTTG [3d85],0.716
4,ATCCTTGTCGTAAGACACTTTGGATGGGTTGA [2d4],0.744
5,ATCCTTGTCGTAAGACACTTTGGATGGTTGA [3d83],0.138
6,ATCCTTGTCGTAAGACACTTTGGTGGGTTGA [3d81],0.169
7,ATCCTTGTCGTAAGACATTTGGATGGGTTGA [3d78],0.725
8,ATCCTTGTCGTAAGACCTTTGGATGGGTTGA [3d77],0.703
9,ATCCTTGTCGTAAGCACTTTGGATGGGTTGA [3d75],0.715
10,ATCCTTGTCGTAGACACTTTGGATGGGTTGA [3d73],0.758
11,ATCCTTGTCTAAGACACTTTGGATGGGTTGA [3d71],0.716
12,ATCCTTGTGTAAGACACTTTGGATGGGTTGA [3d70],0.734
13,ATCCTTTCGTAAGACACTTTGGATGGGTTGA [3d68],0.791
14,ATCTTGTCGTAAGACACTTTGGATGGGTTGA [3d46],0.774
15,CACTTGTCGTAAGACACTTTGGATGGGTTGA [3d1],0.637
16,GGTATCACTTGTCGTAAGACACTTTGGATGTTGA [s36],0.000954
17,GGTTATCACTTGTCGTAAGACACTTTGGATGTGA [s37],0
18,GTATCACTTGTCGTAAGACACTTTGGATGGTTGA [s35],0.242
19,TAACTGTCGTAAGACACTTTGGATGGGTTGA [3d509],0.175
20,TAACTTGCGTAAGACACTTTGGATGGGTTGA [3d511],0.085
21,TAACTTGTCGAAGACACTTTGGATGGGTTGA [3d514],0.112
22,TAACTTGTCGTAAACACTTTGGATGGGTTGA [3d516],0.0735

row,Sequence,fraction ligated
1,TAACTTGTCGTAAGAACTTTGGATGGGTTGA [3d518],0.21
2,TAACTTGTCGTAAGACACTTGGATGGGTTGA [3d521],0.266
3,TAACTTGTCGTAAGACACTTTGATGGGTTGA [3d522],0.0453
4,TAACTTGTCGTAAGACACTTTGGAGGGTTGA [3d524],0.0881
5,TAACTTGTCGTAAGACACTTTGGATGGGTTA [3d526],0.0297
6,TAACTTGTCGTAAGACACTTTGGATGGGTTG [3d527],0.153
7,TAACTTGTCGTAAGACACTTTGGATGGGTTGA [2d47],0.271
8,TAACTTGTCGTAAGACACTTTGGATGGTTGA [3d525],0.309
9,TAACTTGTCGTAAGACACTTTGGTGGGTTGA [3d523],0.0256
10,TAACTTGTCGTAAGACATTTGGATGGGTTGA [3d520],0.38
11,TAACTTGTCGTAAGACCTTTGGATGGGTTGA [3d519],0.196
12,TAACTTGTCGTAAGCACTTTGGATGGGTTGA [3d517],0.142
13,TAACTTGTCGTAGACACTTTGGATGGGTTGA [3d515],0.177
14,TAACTTGTCTAAGACACTTTGGATGGGTTGA [3d513],0.123
15,TAACTTGTGTAAGACACTTTGGATGGGTTGA [3d512],0.547
16,TAACTTTCGTAAGACACTTTGGATGGGTTGA [3d510],0.0478
17,TAATTGTCGTAAGACACTTTGGATGGGTTGA [3d508],0.0528
18,TACACGTCGTAAGACACTTTGGATGGGTTGA [3d566],0.266
19,TACACTGCGTAAGACACTTTGGATGGGTTGA [3d568],0.177
20,TACACTGTCGAAGACACTTTGGATGGGTTGA [3d571],0.346
21,TACACTGTCGTAAACACTTTGGATGGGTTGA [3d573],0.181
22,TACACTGTCGTAAGAACTTTGGATGGGTTGA [3d575],0.162

row,Sequence,fraction ligated
1,TACACTGTCGTAAGACACTTGGATGGGTTGA [3d578],0.394
2,TACACTGTCGTAAGACACTTTGATGGGTTGA [3d579],0.279
3,TACACTGTCGTAAGACACTTTGGAGGGTTGA [3d581],0.292
4,TACACTGTCGTAAGACACTTTGGATGGGTTA [3d583],0.069
5,TACACTGTCGTAAGACACTTTGGATGGGTTG [3d584],0.321
6,TACACTGTCGTAAGACACTTTGGATGGGTTGA [2d50],0.432
7,TACACTGTCGTAAGACACTTTGGATGGTTGA [3d582],0.375
8,TACACTGTCGTAAGACACTTTGGTGGGTTGA [3d580],0.151
9,TACACTGTCGTAAGACATTTGGATGGGTTGA [3d577],0.617
10,TACACTGTCGTAAGACCTTTGGATGGGTTGA [3d576],0.752
11,TACACTGTCGTAAGCACTTTGGATGGGTTGA [3d574],0.463
12,TACACTGTCGTAGACACTTTGGATGGGTTGA [3d572],0.322
13,TACACTGTCTAAGACACTTTGGATGGGTTGA [3d570],0.266
14,TACACTGTGTAAGACACTTTGGATGGGTTGA [3d569],0.632
15,TACACTTCGTAAGACACTTTGGATGGGTTGA [3d567],0.0399
16,TACACTTGCGAAGACACTTTGGATGGGTTGA [3d603],0.157
17,TACACTTGCGTAAACACTTTGGATGGGTTGA [3d605],0.036
18,TACACTTGCGTAAGAACTTTGGATGGGTTGA [3d607],0.015
19,TACACTTGCGTAAGACACTTGGATGGGTTGA [3d610],0.0197
20,TACACTTGCGTAAGACACTTTGATGGGTTGA [3d611],0.0347
21,TACACTTGCGTAAGACACTTTGGAGGGTTGA [3d613],0.044
22,TACACTTGCGTAAGACACTTTGGATGGGTTA [3d615],0.013
